The values that follow come from the supplement of paper PMC5998384.

The subject of data set [1] is HeLa Kyoto. Nature of the data set: thermal stability score vs G1/S (z-score of summed log2 fold changes over temperatures); higher = more thermally stable than in G1/S.
The test system of data set [2] is HeLa Kyoto. The experiment in a line: solubility change mitosis vs G1/S (difference of NP-40 vs SDS log2 ratios) (log2 ratio difference); higher = more soluble in mitosis.
The test system of data set [3] is HeLa Kyoto. The experiment in a line: melting temperature (median over replicates), in situ; higher = more thermally stable.
Data set [4] relates to HeLa Kyoto. Nature of the data set: solubility in G1/S (NP-40 vs SDS abundance) (log2 ratio); higher = more soluble. Conditions: cell cycle stage: G1/S.
Where [5] appears, read: cell cycle stage: early G1 (4.5 h after nocodazole release).
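Wherever melting temperature (median over replicates), in situ is given: HeLa Kyoto cells synchronized by double thymidine or nocodazole block, proteins quantified by TMT10plex mass spectrometry, three independent biological replicates.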
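Wherever solubility change mitosis vs G1/S (difference of NP-40 vs SDS log2 ratios) is given: synchronized HeLa Kyoto cells (double thymidine block for G1/S, nocodazole release for mitosis), protein amounts in NP-40 versus SDS lysates quantified by mass spectrometry, three biological replicates.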
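Wherever solubility in G1/S (NP-40 vs SDS abundance) is given: HeLa Kyoto cells arrested at G1/S by double thymidine block, proteins quantified by TMT10plex mass spectrometry in mild NP-40 versus SDS extracts, three biological replicates.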
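Wherever thermal stability score vs G1/S (z-score of summed log2 fold changes over temperatures) is given: synchronized HeLa Kyoto cells, proteins quantified by TMT10plex mass spectrometry, three biological replicates, mitosis taken 0.5 h after nocodazole release, G1/S directly after double thymidine block.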

For “MAEEQGRERDSVPKPSVLFLHPDLGVGGAERLVLDAALALQARGCSVKIWTAHYDPGHCFAESRELPVRCAGDWLPRGLGWGGRGAAVCAYVRMVFLALYVLFLADEEFDVVVCDQVSACIPVFRLARRRKKILFYCHFPDLLLTKRDSFLKRLYRAPIDWIEEYTTGMADCILVNSQFTAAVFKETFKSLSHIDPDVLYPSLNVTSFDSVVPEKLDDLVPKGKKFLLLSINRYERKKNLTLALEALVQLRGRLTSQDWERVHLIVAGGYDERVLENVEHYQELKKMVQQSDLGQYVTFLRSFSDKQKISLLHSCTCVLYTPSNEHFGIVPLEAMYMQCPVIAVNSGGPLESIDHSVTGFLCEPDPVHFSEAIEKFIREPSLKATMGLAGRARVKEKFSPEAFTEQLYRYVTKLLV [ALG2]”, the thermal stability score with HeLa Kyoto [1] (setting [5]) worked out at 0.227; with HeLa Kyoto [1] (cell cycle stage: mitosis), 0.342. The “solubility change mitosis (log2)” value in the data set with HeLa Kyoto [2] is -0.229. Besides, the melting temperature in the data set on HeLa Kyoto [3] (cell cycle stage: G1/S) was 51 °C; with HeLa Kyoto [3] (cell cycle stage: mitosis), 51.3 °C. Besides, the “solubility in G1/S (log2)” value in the data set on HeLa Kyoto [4] is -0.0813.

As to “MAEFLDDQETRLCDNCKKEIPVFNFTIHEIHCQRNIGMCPTCKEPFPKSDMETHMAAEHCQVTCKCNKKLEKRLLKKHEETECPLRLAVCQHCDLELSILKLKEHEDYCGARTELCGNCGRNVLVKDLKTHPEVCGREGEEKRNEVAIPPNAYDESWGQDGIWIASQLLRQIEALDPPMRLPRRPLRAFESDVFHNRTTNQRNITAQVSIQNNLFEEQERQERNRGQQPPKEGGEESANLDFMLALSLQNEGQASSVAEQDFWRAVCEADQSHGGPRSLSDIKGAADEIMLPCEFCEELYPEELLIDHQTSCNPSRALPSLNTGSSSPRGVEEPDVIFQNFLQQAASNQLDSLMGLSNSHPVEESIIIPCEFCGVQLEEEVLFHHQDQCDQRPATATNHVTEGIPRLDSQPQETSPELPRRRVRHQGDLSSGYLDDTKQETANGPTSCLPPSRPINNMTATYNQLSRSTSGPRPGCQPSSPCVPKLSNSDSQDIQGRNRDSQNGAIAPGHVSVIRPPQNLYPENIVPSFSPGPSGRYGASGRSEGGRNSRVTPAAANYRSRTAKAKPSKQQGAGDAEEEEEE [TRAFD1]”, the thermal stability score was -1.71 in the data set on HeLa Kyoto [1] (setting [5]) and -2.27 in the data set with HeLa Kyoto [1] (cell cycle stage: mitosis). The “solubility change mitosis (log2)” value with HeLa Kyoto [2] was -0.0897. The melting temperature in the data set on HeLa Kyoto [3] (cell cycle stage: G1/S) came to 53.8 °C; in the data set with HeLa Kyoto [3] (cell cycle stage: mitosis), 53.9 °C. In addition, the “solubility in G1/S (log2)” value in the data set with HeLa Kyoto [4] stood at 0.132.

In the case of “MAEGNHRKKPLKVLESLGKDFLTGVLDNLVEQNVLNWKEEEKKKYYDAKTEDKVRVMADSMQEKQRMAGQMLLQTFFNIDQISPNKKAHPNMEAGPPESGESTDALKLCPHEEFLRLCKERAEEIYPIKERNNRTRLALIICNTEFDHLPPRNGADFDITGMKELLEGLDYSVDVEENLTARDMESALRAFATRPEHKSSDSTFLVLMSHGILEGICGTVHDEKKPDVLLYDTIFQIFNNRNCLSLKDKPKVIIVQACRGANRGELWVRDSPASLEVASSQSSENLEEDAVYKTHVEKDFIAFCSSTPHNVSWRDSTMGSIFITQLITCFQKYSWCCHLEEVFRKVQQSFETPRAKAQMPTIERLSMTRYFYLFPGN [CASP4]”, the figures for the thermal stability score in the data set with HeLa Kyoto [1] (setting [5]) and in the data set with HeLa Kyoto [1] (cell cycle stage: mitosis) were 0.457 and 0.45, respectively. For the same sequence, in the data set on HeLa Kyoto [2], the “solubility change mitosis (log2)” value was -0.0831. The sequence also gave a melting temperature in the data set on HeLa Kyoto [3] (cell cycle stage: mitosis) of 50.5 °C. For the same sequence, the “solubility in G1/S (log2)” value with HeLa Kyoto [4] was found to be 0.0521.

For “MAELDPFGAPAGAPGGPALGNGVAGAGEEDPAAAFLAQQESEIAGIENDEAFAILDGGAPGPQPHGEPPGGPDAVDGVMNGEYYQESNGPTDSYAAISQVDRLQSEPESIRKWREEQMERLEALDANSRKQEAEWKEKAIKELEEWYARQDEQLQKTKANNRVADEAFYKQPFADVIGYVTNINHPCYSLEQAAEEAFVNDIDESSPGTEWERVARLCDFNPKSSKQAKDVSRMRSVLISLKQAPLVH [CLTA]”, the figures for the thermal stability score in the data set on HeLa Kyoto [1] (setting [5]) and in the data set on HeLa Kyoto [1] (cell cycle stage: mitosis) were -6.01 and -4.14, respectively. Further, the “solubility change mitosis (log2)” value in the data set on HeLa Kyoto [2] is 0.362. The same sequence displayed a melting temperature with HeLa Kyoto [3] (cell cycle stage: G1/S) of 54.7 °C. In the data set on HeLa Kyoto [4], the “solubility in G1/S (log2)” value was found to be 0.31.

For the sequence “MAELSEEALLSVLPTIRVPKAGDRVHKDECAFSFDTPESEGGLYICMNTFLGFGKQYVERHFNKTGQRVYLHLRRTRRPKEEDPATGTGDPPRKKPTRLAIGVEGGFDLSEEKFELDEDVKIVILPDYLEIARDGLGGLPDIVRDRVTSAVEALLSADSASRKQEVQAWDGEVRQVSKHAFSLKQLDNPARIPPCGWKCSKCDMRENLWLNLTDGSILCGRRYFDGSGGNNHAVEHYRETGYPLAVKLGTITPDGADVYSYDEDDMVLDPSLAEHLSHFGIDMLKMQKTDKTMTELEIDMNQRIGEWELIQESGVPLKPLFGPGYTGIRNLGNSCYLNSVVQVLFSIPDFQRKYVDKLEKIFQNAPTDPTQDFSTQVAKLGHGLLSGEYSKPVPESGDGERVPEQKEVQDGIAPRMFKALIGKGHPEFSTNRQQDAQEFFLHLINMVERNCRSSENPNEVFRFLVEEKIKCLATEKVKYTQRVDYIMQLPVPMDAALNKEELLEYEEKKRQAEEEKMALPELVRAQVPFSSCLEAYGAPEQVDDFWSTALQAKSVAVKTTRFASFPDYLVIQIKKFTFGLDWVPKKLDVSIEMPEELDISQLRGTGLQPGEEELPDIAPPLVTPDEPKGSLGFYGNEDEDSFCSPHFSSPTSPMLDESVIIQLVEMGFPMDACRKAVYYTGNSGAEAAMNWVMSHMDDPDFANPLILPGSSGPGSTSAAADPPPEDCVTTIVSMGFSRDQALKALRATNNSLERAVDWIFSHIDDLDAEAAMDISEGRSAADSISESVPVGPKVRDGPGKYQLFAFISHMGTSTMCGHYVCHIKKEGRWVIYNDQKVCASEKPPKDLGYIYFYQRVAS [USP5]”, the figures for the thermal stability score with HeLa Kyoto [1] (setting [5]) and in the data set with HeLa Kyoto [1] (cell cycle stage: mitosis) were 0.203 and 0.183, respectively. The “solubility change mitosis (log2)” value in the data set with HeLa Kyoto [2] is -0.139. Further, the figures for the melting temperature in the data set on HeLa Kyoto [3] (cell cycle stage: G1/S) and in the data set on HeLa Kyoto [3] (cell cycle stage: mitosis) were 52 °C and 51.9 °C, respectively. Moreover, the “solubility in G1/S (log2)” value in the data set on HeLa Kyoto [4] turned out to be 0.218.

On to “MAELVQGQSAPVGMKAEGFVDALHRVRQIAAKIDSIPHLNNSTPLVDPSVYGYGVQKRPLDDGVGNQLGALVHQRTVITEEFKVPDKMVGFIIGRGGEQISRIQAESGCKIQIASESSGIPERPCVLTGTPESIEQAKRLLGQIVDRCRNGPGFHNDIDSNSTIQEILIPASKVGLVIGRGGETIKQLQERTGVKMVMIQDGPLPTGADKPLRITGDAFKVQQAREMVLEIIREKDQADFRGVRGDFNSRMGGGSIEVSVPRFAVGIVIGRNGEMIKKIQNDAGVRIQFKPDDGISPERAAQVMGPPDRCQHAAHIISELILTAQERDGFGGLAAARGRGRGRGDWSVGAPGGVQEITYTVPADKCGLVIGKGGENIKSINQQSGAHVELQRNPPPNSDPNLRRFTIRGVPQQIEVARQLIDEKVGGTNLGAPGAFGQSPFSQPPAPPHQNTFPPRSSGCFPNMAAKVNGNPHSTPVSGPPAFLTQGWGSTYQAWQQPTQQVPSQQSQPQSSQPNYSKAWEDYYKKQSHAASAAPQASSPPDYTMAWAEYYRQQVAFYGQTLGQAQAHSQEQ [FUBP3]”, for which the results for the thermal stability score in the data set with HeLa Kyoto [1] (setting [5]) and in the data set with HeLa Kyoto [1] (cell cycle stage: mitosis) were 0.0807 and 1.05, respectively. The “solubility change mitosis (log2)” value with HeLa Kyoto [2] was -0.0288. Also, the melting temperature in the data set with HeLa Kyoto [3] (cell cycle stage: G1/S) turned out to be 48.7 °C; in the data set on HeLa Kyoto [3] (cell cycle stage: mitosis) it was 49.5 °C. In the data set with HeLa Kyoto [4], the “solubility in G1/S (log2)” value was 0.337.
